Values of other authors as cited in patent publication US6316409A, “Modified ligands of calcium-dependent binding proteins” (Medical Research Council, priority 1996, dated 2001).

Target: T1, barnase (Bacillus amyloliquefaciens, UniProt P00648)
T1 sequence (P00648 48-157): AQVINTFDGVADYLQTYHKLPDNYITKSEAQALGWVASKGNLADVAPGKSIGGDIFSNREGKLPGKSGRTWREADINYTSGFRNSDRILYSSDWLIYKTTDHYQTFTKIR
Details: cited from earlier work

B1: barstar: physiological inhibitor of barnase (protein, UniProt P11540 2-90, looked up)
Barstar: KKAVINGEQIRSISDLHQTLKKELALPEYYGENLDALWDCLTGWVEYPLVLEWRQFEQSKQLTENGAESVLQVFREAKAEGCDITIILS
In the case of B1, the association rate constant is listed as 3.8e+09 M⁻¹ s⁻¹.
